From the supplement of paper PMC12042874
± gives the uncertainty stated by the source.

Assay: amyloid nucleation score (Sup35N fusion, yeast selection) (log enrichment); library NNK2; higher = more nucleation; inactive = no reads after selection
How it was run: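 The nucleation score, computed with DiMSum, is the log enrichment of output over input reads, centred on the mode score of non-aggregating sequences. Sequences with under 100 input reads were dropped. Reads were generated by Illumina sequencing of plasmid inserts from psi-negative yeast with Sup35N fused to peptides of 20 random codons, induced with 100 μM copper sulfate for 24 hours and grown 7 days at 30°C on medium lacking adenine and uracil.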
For RWIATGSGRPETHVILESSG, the amyloid nucleation score was “inactive”.
With FSGLSCY the amyloid nucleation score was “inactive”.
In the case of VRTIF, the amyloid nucleation score is reported as “inactive”.
Work on LFNAVGLATV yielded an amyloid nucleation score of 0.33 ± 0.74.
In the case of LECNDA, the amyloid nucleation score is reported as 0.322 ± 0.51.
TRSTNVQLDPYFYLW showed an amyloid nucleation score of -1.16 ± 0.39.
LPTFSPQ gave an amyloid nucleation score of 3.77 ± 0.13.
Work on NSFMPMTWLPFRSQTEKRGS yielded an amyloid nucleation score of 3.73 ± 0.075.
Work on YHIWRYHATSSHTFARFSSV yielded an amyloid nucleation score of 1.62 ± 0.51.
With HFDFGFIGRDVIDVIDVRTN the amyloid nucleation score was 0.039 ± 0.46.
LLHNIDVRTSRME gave an amyloid nucleation score of -0.846 ± 0.44.
Substance FLGVFSYASSMIISVKRERS has an amyloid nucleation score of 4.1 ± 0.095.
TRADDL showed an amyloid nucleation score of 0.205 ± 0.4.
GFQFLIGLSHLNGYLITPRY showed an amyloid nucleation score of 3.42 ± 0.059.
Work on MVFKRPHVWFDTTTFEFGMV yielded an amyloid nucleation score of 0.732 ± 0.43.
For WTTMRLFLDFMYTLDRVGST, the amyloid nucleation score was -0.291 ± 1.1.
Work on RCFGFRVVRFVV yielded an amyloid nucleation score of 0.014 ± 0.2.
For FSCFIIYVGQKTACNSNTAL, the amyloid nucleation score was 4.57 ± 0.08.
Substance PRWGRTMGCFSFRDPCRVTG has an amyloid nucleation score of -0.277 ± 0.35.
Substance SMRVYHSHLNWFH has an amyloid nucleation score of 6.63 ± 0.063.
In the case of KITRWLCYIFTTLL, the amyloid nucleation score is reported as -1.7 ± 1.1.
In the case of FRFRSNSMSFHNADISLLSV, the amyloid nucleation score is reported as “inactive”.
WLVSSVSCQPMSQSSFVGGL showed an amyloid nucleation score of 5.498 ± 0.05.
In the case of YTPHYLQCRLFCIPLRLNRS, the amyloid nucleation score is reported as -1.09 ± 0.49.
ARMRKFTCRDWFRDPMGQPA showed an amyloid nucleation score of 0.854 ± 0.25.
In the case of VLVSGYDLVVVDRVYLGRMF, the amyloid nucleation score is reported as 2.56 ± 0.085.
With PVKTNFCENINYFIVPGFAL the amyloid nucleation score was “inactive”.
ARTWGAAIWFMGN gave an amyloid nucleation score of 4.09 ± 0.093.
For CVGGWWPRQRLFCIWFIIAV, the amyloid nucleation score was 1.72 ± 0.31.
RLKVVLRYLASGHWKLVA gave an amyloid nucleation score of 1.31 ± 0.41.
In the case of GCTCYWFS, the amyloid nucleation score is reported as 1.63 ± 0.15.
SRFGGVSTHYLARSFVDVTM showed an amyloid nucleation score of 0.039 ± 0.44.
FIIDWSVKFGICSICLAT gave an amyloid nucleation score of 5.448 ± 0.042.
With MIWLHIILMLMLVCRVLSE the amyloid nucleation score was 0.914 ± 0.46.
QSVNCYNVNSDVCNKVYNDL gave an amyloid nucleation score of 0.716 ± 0.42.
Work on AFCKGYIARMRSINAGVGAG yielded an amyloid nucleation score of -0.144 ± 0.36.
For ECERERYLLGTRT, the amyloid nucleation score was 0.322 ± 0.25.
In the case of LGIVVVHWTPIIAGW, the amyloid nucleation score is reported as -1.11 ± 0.56.
Substance YRGLTSLYLFNQV has an amyloid nucleation score of -0.08 ± 0.23.
Substance PVNRQNFFSCD has an amyloid nucleation score of -1.67 ± 0.62.
For RKPRFIACMTSPCLALC, the amyloid nucleation score was 0.066 ± 0.5.
ALCIAGTLLYMANLISTLHG showed an amyloid nucleation score of 0.439 ± 0.36.
For VHCCFGACGCSSWRLNLLAS, the amyloid nucleation score was 0.092 ± 0.49.
In the case of PCITLAFPVNKSRF, the amyloid nucleation score is reported as -0.363 ± 1.1.
In the case of TGSRNIWTRVVFLYCFRVHG, the amyloid nucleation score is reported as -0.939 ± 0.54.
With LNSTGAQQFRTVEVYTSMQW the amyloid nucleation score was 2.81 ± 0.11.
SCYLVYEFLLTGVSWWQSRL gave an amyloid nucleation score of 0.794 ± 0.48.
In the case of PVLYFLGLSMVDNTITRSTA, the amyloid nucleation score is reported as -0.763 ± 0.34.
LYVVVRLISCYYGAFPSWNR showed an amyloid nucleation score of -0.316 ± 0.26.
Substance ERTMF has an amyloid nucleation score of 0.396 ± 0.3.
With RTWSIFIASVKYVKV the amyloid nucleation score was -0.24 ± 0.74.
With KWYFRSWRLMLYSVKFSFRI the amyloid nucleation score was -0.693 ± 0.55.
SFSDVLNSGVRCF gave an amyloid nucleation score of 0.234 ± 0.35.
YVVGDMTFWS gave an amyloid nucleation score of -0.297 ± 1.1.
Work on GKYCYPL yielded an amyloid nucleation score of -0.81 ± 0.32.
With SKCLSIPISCFTCVLLCYFF the amyloid nucleation score was 0.936 ± 0.17.
Work on FGNALA yielded an amyloid nucleation score of -1.15 ± 0.61.
TQDDAHQVRGQCVPSENIGP showed an amyloid nucleation score of 1.96 ± 0.21.
Substance EDTMFHNFQWSKAYLCYYWF has an amyloid nucleation score of -0.294 ± 1.1.
LSMELNGYYILVCDLDFVTE showed an amyloid nucleation score of 1.5 ± 0.16.
Substance SNLVKHRQV has an amyloid nucleation score of 0.745 ± 0.46.
For LLCFHTHLRKAMGVTINSIS, the amyloid nucleation score was -1.19 ± 0.49.
Work on SFRYLCIRNGTSYGMYTSPV yielded an amyloid nucleation score of 0.478 ± 0.8.
FVSLVWKTLKVSRSIVSNFD showed an amyloid nucleation score of 2.74 ± 0.15.
With TLLSNTSKLFLLHNYHQWVM the amyloid nucleation score was 0.062 ± 0.74.
Work on EFWPIITTSRRDMISNLDQG yielded an amyloid nucleation score of -0.593 ± 0.43.
Substance MLRFFCADWCSLGVCFTLGV has an amyloid nucleation score of -0.137 ± 1.1.
For YRCVDYKGIEYLLYREMLTT, the amyloid nucleation score was 3.93 ± 0.046.
LSRVSE gave an amyloid nucleation score of -0.405 ± 0.39.
For SHINFYVLEFWTFRIGDVFV, the amyloid nucleation score was “inactive”.
For RYNESEVSISRETRNVVLTF, the amyloid nucleation score was 0.712 ± 0.26.
Substance TPSKKDGECWNFYRTMWFTG has an amyloid nucleation score of -0.492 ± 0.79.
Substance GVAMNNCGIMDSREHGFGIR has an amyloid nucleation score of 0.436 ± 0.36.
In the case of PTLHMGMPN, the amyloid nucleation score is reported as -0.013 ± 0.79.
Substance YSYTTVFNIASNTTNELATC has an amyloid nucleation score of -0.375 ± 0.2.
In the case of AYGVIGWCWSYGERNWVHVR, the amyloid nucleation score is reported as 0.377 ± 0.49.
ILCLFTLSSSKCYGG gave an amyloid nucleation score of 5.689 ± 0.037.
LNRYYSLPRLSVPSSVRSCG gave an amyloid nucleation score of -1.18 ± 0.44.
Substance FGLMLRTS has an amyloid nucleation score of 0.062 ± 0.41.
In the case of EHIASLVMNAANSTNPVGQK, the amyloid nucleation score is reported as -0.339 ± 0.76.
For SSCYSVLGMRL, the amyloid nucleation score was “inactive”.
For VDCWMSISCQDYDSKFKVKS, the amyloid nucleation score was 0.242 ± 0.77.
With KIDSICRYRGPINQLNINPF the amyloid nucleation score was 0.417 ± 0.4.
Work on YSLLLTIKPTTSWRCVSDGH yielded an amyloid nucleation score of 2.27 ± 0.23.
For RSNFIQDSLSYFDILAIRRG, the amyloid nucleation score was “inactive”.
For CKFLRVIA, the amyloid nucleation score was -1.42 ± 0.41.
